Where a chain is given by its changes, count along the chain named.

One data set has as its target T1, Pab-AGOG WT (Pyrococcus abyssi, UniProt Q9UZY0 1-239).
T1 sequence: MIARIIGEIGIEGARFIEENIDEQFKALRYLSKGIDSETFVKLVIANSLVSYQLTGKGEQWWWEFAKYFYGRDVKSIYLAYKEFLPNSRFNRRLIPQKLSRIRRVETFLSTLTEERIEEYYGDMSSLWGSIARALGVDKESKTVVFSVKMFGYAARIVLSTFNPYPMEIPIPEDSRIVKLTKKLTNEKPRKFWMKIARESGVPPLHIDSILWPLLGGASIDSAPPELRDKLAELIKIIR
Briefly: X-ray structure; NaBH4-trapped covalent at K142; EMSA: 0.1 nM 32P-DNA, 20 mM HEPES/NaOH pH 7.6, 100 mM NaCl, 10% glycerol, 0.1% BSA, 30 min at 4 C; 10% native PAGE at 4 C. The settings on record: protein: recombinant; tags: N-terminal 6xHis (pET28a), removed by trypsin at thrombin site.

Another data set has as its target T2, Pab-AGOG K142Q (Pyrococcus abyssi, UniProt Q9UZY0 1-239, K142Q).
T2 sequence: T1 sequence with K142Q
In words: X-ray structure; non-covalent, 1.25 A; EMSA: 0.1 nM 32P-DNA, 20 mM HEPES/NaOH pH 7.6, 100 mM NaCl, 10% glycerol, 0.1% BSA, 30 min at 4 C; 10% native PAGE at 4 C. The settings on record: protein: recombinant; tags: N-terminal 6xHis (pET28a), removed by trypsin (as for WT).

B1: 9-mer trapped AP strand with 9-mer T (dsDNA)
DNA 1: TTTGTTTCT
DNA 2: AGAAATAAA
modifications: ring-open AP site from GO, borohydride-trapped, opposite T
On to B1, for which, in the data set with Pab-AGOG WT, the binding result is listed as “binds”.

B2: 9-mer GO:C duplex (dsDNA)
DNA 1: TTTGTTTCT
DNA 2: AGAAACAAA
modifications: 8-oxoguanine at position 4 (opposite C6*)
B2: the binding result in the data set with Pab-AGOG K142Q is recorded as “binds”.

B3: 9-mer trapped AP strand with 9-mer A (dsDNA)
DNA 1: TTTGTTTCT
DNA 2: AGAAAAAAA
modifications: ring-open AP site from GO, borohydride-trapped, opposite A
Take B3: in the data set with Pab-AGOG WT, the binding result was “binds”.

The record behind these values is paper PMC9638937, “Structural and functional determinants of the archaeal 8-oxoguanine-DNA glycosylase AGOG for DNA damage recognition and processing”.
